From article PMC6258048 (Biochemical and biophysical research communications, 2014)

T1: Tcf4 (Transcription factor 4) DNA binding B-HLH domain
T1 chain: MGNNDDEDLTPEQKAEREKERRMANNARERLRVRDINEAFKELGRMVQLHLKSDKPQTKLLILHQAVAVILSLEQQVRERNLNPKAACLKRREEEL

B1: Tcf3 (Transcription factor 3) DNA binding B-HLH domain (domain or fragment)
chain: MGHMVHRPWIQDEVLSLEEKDLRDRERRMANNARERVRVRDINEAFRELGRMCQLHLKSDKAQTKLLILQQAVQVILGLEQQVRERNLNPKAACGGRTRIVSAHNSENEL
B2: Ascl1 (Achaete-scute homolog 1) DNA binding B-HLH domain (domain or fragment)
chain: MASGFGYSLPQQQPAAVARRNERERNRVKLVNLGFATLREHVPNGAANKKMSKVETLRSAVEYIRALQQLLDEHDAVSAAFQAGVLSPEL

Tests used:
CD thermal denaturation = molecular target: the molecule itself; assay: CD thermal denaturation
[1] = molecular target: T1, Tcf4 (Transcription factor 4) DNA …; assay: native gel or EMSA
[2] = molecular target: B1; assay: native gel or EMSA
[3] = molecular target: Tcf12 (Transcription factor 12) DNA binding B-HLH domain; assay: native gel or EMSA

| binding result [1] | binding result [2] | binding result [3] | Binder | binding result (CD thermal denaturation) |
| --- | --- | --- | --- | --- |
| – | – | – | B1 | binds |
| binds | binds | binds | B2 | – |
